According to the supplement of paper PMC9732359:
± gives the uncertainty stated by the source.

Test: protein stability index of a GFP-peptide fusion (yeast GPS) (PSI 1-4); higher = more stable; sorted into four equal gates, so the index is relative within each strain
In short: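 For each peptide, the protein stability index sums the read frequency in every gate after multiplying it by the gate number. Read frequencies came from plasmids that were PCR-amplified from each gate and Illumina-sequenced, with reads assigned to strains by barcodes. The gates were four equal bins of GFP/Cherry fluorescence ratio applied to mid-log yeast in leucine-free medium carrying a pooled library of tiled 17-residue yeast protein peptides fused downstream of GFP on a Cherry-expressing plasmid.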

Sequence | protein stability index (doa10∆) | protein stability index (pdr5∆) | protein stability index (san1∆) | protein stability index (ubr1∆)
STRLKKACKTADKLVNV [SRP68] | 3.38 ± 0.081 | 3.26 ± 0.073 | 2.98 ± 0.074 | 3.18 ± 0.052
VEINSSESDLDEDKNFP [ESC2] | 2.99 ± 0.063 | 2.66 ± 0.056 | 3.25 ± 0.052 | 3.16 ± 0.057
RNVGKTLVNKSTGLKSA [RPS1A] | 2.81 ± 0.098 | 2.72 ± 0.097 | 2.59 ± 0.12 | 2.96 ± 0.086
QPNARALERYDEAEGRF [SMC1] | 3.44 ± 0.12 | 3.58 ± 0.1 | 3.17 ± 0.074 | 3.29 ± 0.097
GTLKVILNLYSSAHLIR [YML103C/NUP188] | 2.07 ± 0.15 | – | – | –
PTSDEPVPESAGKADTS [SRB4] | 2.86 ± 0.085 | 3.07 ± 0.092 | 2.88 ± 0.065 | 3.07 ± 0.045
RENNFRVASDTVHEMEE [SMC4] | – | 3.36 ± 0.28 | 3.19 ± 0.13 | 2.95 ± 0.27
VYINPSGEKIDFLLSDW [BRR2] | 1.61 ± 0.1 | 2.49 ± 0.097 | 3.22 ± 0.12 | 2.38 ± 0.073
KGGEQISQLYSDAVMAE [YJL041W/NSP1] | 2.25 ± 0.12 | 2.01 ± 0.12 | 2.19 ± 0.14 | 2.33 ± 0.13
IAATGLNQINGLNNDFL [GRR1] | 3.34 ± 0.17 | 3.26 ± 0.14 | 3 ± 0.1 | 3.19 ± 0.12
DTCAVSFDAVSDSIELL [YJR042W/NUP85] | 3.04 ± 0.12 | 3.46 ± 0.1 | 2.51 ± 0.25 | 2.65 ± 0.15
LSINEKDFVTMAIEIIN [YCG1] | 2.44 ± 0.082 | 2.38 ± 0.077 | 2.14 ± 0.093 | 2.15 ± 0.053
VSTETFEQPSQREEAKK [RPL27A] | 2.9 ± 0.061 | 2.73 ± 0.07 | 2.73 ± 0.054 | 3.1 ± 0.067
RSGSNAAASLPSKKLKT [RPC82] | 2.71 ± 0.068 | 2.91 ± 0.078 | 2.71 ± 0.05 | 2.76 ± 0.033
RVNLSENTPEPDLPALE [SMC4] | 2.26 ± 0.091 | 2.32 ± 0.074 | 3.1 ± 0.086 | 2.83 ± 0.11
SVFKGGMQNLIKKKKKK [SRP14] | 2 ± 0.18 | 3.05 ± 0.3 | – | –
ANGGSTIISPHKDIPEE [DSN1] | 3.44 ± 0.21 | 3.44 ± 0.16 | 3.57 ± 0.079 | 2.88 ± 0.28
ISNVIKPNQTIMVLDAS [SRP54] | 2.48 ± 0.062 | 2.56 ± 0.053 | 2.83 ± 0.06 | 2.67 ± 0.059
EIVSDVKVVDAGNKVGQ [RPP0] | – | 3.59 ± 0.2 | – | –
YKKIPLLGPTLEDHTPP [QCR10] | 2.34 ± 0.05 | 2.59 ± 0.057 | 2.42 ± 0.083 | 2.76 ± 0.029
KLMDEDSVATVIEVIET [YJR042W/NUP85] | 2.85 ± 0.13 | 3.02 ± 0.16 | 2.51 ± 0.11 | 2.98 ± 0.15
VHDKIWCCRSGSAADTQ [PRE3] | 2.59 ± 0.07 | 2.92 ± 0.076 | 2.64 ± 0.081 | 2.65 ± 0.048
HIFQVEYALEAVKRGTC [PRE6] | 2.76 ± 0.15 | 2.75 ± 0.13 | 2.54 ± 0.19 | 2.77 ± 0.19
VDVLVISSHSHPVSLIS [RRP42] | 1.5 ± 0.046 | 1.53 ± 0.048 | 1.57 ± 0.062 | 1.67 ± 0.03
HKSGKLSVKIGNVVMDI [RPC53] | 1.53 ± 0.1 | 1.25 ± 0.073 | 1.07 ± 0.2 | –
EMKIGSIESKLEEHKNH [SMC1] | 3.03 ± 0.15 | 3.22 ± 0.16 | 2.96 ± 0.18 | 3.01 ± 0.099

Sequence | protein stability index (doa10∆) | protein stability index (pdr5∆) | protein stability index (san1∆) | protein stability index (ubr1∆)
LRLTEQKSPKIRDPLTQ [RPC82] | 1.6 ± 0.071 | 1.66 ± 0.041 | 1.91 ± 0.12 | 1.92 ± 0.045
IREKVAKQALDLYHFAL [SNF2] | 2.52 ± 0.092 | 2.64 ± 0.098 | 2.62 ± 0.094 | 2.54 ± 0.056
PGTTSTGNNNNIATQQN [GAL11] | 2.03 ± 0.052 | 2.69 ± 0.081 | 2.77 ± 0.085 | 2.73 ± 0.056
IHIQSKENYPWELYTDF [POP3] | 2.99 ± 0.095 | 3.16 ± 0.12 | 2.69 ± 0.12 | 3.12 ± 0.075
VVILARAKALGIKVTNP [RPL32] | 3.16 ± 0.14 | 3.2 ± 0.16 | 2.55 ± 0.12 | 2.93 ± 0.076
MVAYSPIIATYGNRAEQ [SRP68] | 2.18 ± 0.085 | 2.54 ± 0.059 | 2.7 ± 0.082 | 2.78 ± 0.073
LAKYRDAGKIDKHLYHV [RPL19A] | 3.3 ± 0.18 | 3.39 ± 0.15 | 1.27 ± 0.28 | 3.61 ± 0.095
YDYYALQLLPLQKAVRG [SNF2] | 1.63 ± 0.05 | 2.24 ± 0.044 | 1.87 ± 0.09 | 1.74 ± 0.035
CKIDFQKNFMDQFQWIL [RRI2] | – | 1.47 ± 0.092 | 1.55 ± 0.24 | 1.93 ± 0.13
SSQFVRLASEPGIISIT [YMR129W/POM152] | 2.04 ± 0.094 | 2.14 ± 0.062 | 1.99 ± 0.12 | 1.78 ± 0.04
MKVFVTKHLMPQDLTFN [RPB7] | 2.96 ± 0.062 | 2.87 ± 0.054 | 2.54 ± 0.066 | 2.94 ± 0.051
AVFKIVLQPLLPRELPK [SNU114] | 2.05 ± 0.083 | 1.76 ± 0.091 | 2.05 ± 0.095 | 2.18 ± 0.074
IAKSRYWYFLQKLHKVK [RPL20A] | 3.06 ± 0.11 | 3.06 ± 0.087 | 2.79 ± 0.075 | 3.03 ± 0.084
AFIFGLQDELKELQLEK [SMC3] | 3.23 ± 0.12 | 3.47 ± 0.11 | 3.11 ± 0.12 | 3.54 ± 0.19
TGIFMAMHYSSNIELAF [COB] | 1.3 ± 0.065 | 1.51 ± 0.063 | 1.24 ± 0.12 | 1.5 ± 0.078
LRKQYSAIDEEIEELID [SMC3] | – | 2.98 ± 0.2 | – | 3.26 ± 0.2
THEQWSNIQRNVLFLRL [SRP72] | 2.67 ± 0.062 | 2.38 ± 0.062 | 1.96 ± 0.077 | 2.45 ± 0.041
SWNLTGTILSSAGDDGK [YGL100W/SEH1] | 1.37 ± 0.062 | 1.88 ± 0.068 | 3.03 ± 0.077 | 2.98 ± 0.084
IKSIIEQRKQKLSKILP [SMC3] | 2.44 ± 0.084 | 2.7 ± 0.091 | 2.52 ± 0.081 | 2.82 ± 0.078
LRIVTHLAICLDIINPG [YDL116W/NUP84] | 1.61 ± 0.08 | 1.38 ± 0.083 | 1.57 ± 0.095 | 1.82 ± 0.067
KIFIKDPKFVNSLLAKL [YML103C/NUP188] | 2.25 ± 0.14 | 2.25 ± 0.063 | 1.72 ± 0.1 | 2.39 ± 0.068
IGTINSIVHINSQERVQ [SIR2] | 2.13 ± 0.037 | 2.16 ± 0.034 | 2.12 ± 0.05 | 1.95 ± 0.026
EIILKLCRNPLTSGLLY [YJL039C/NUP192] | 2.21 ± 0.069 | 1.84 ± 0.07 | 1.22 ± 0.16 | 1.17 ± 0.046
RNSKLLNTKSIQIDEET [MCD1] | 3.21 ± 0.23 | 2.63 ± 0.084 | 3.18 ± 0.061 | 3.33 ± 0.12
SKIFRFQNSKSASLFKQ [RPL24A] | 2.63 ± 0.097 | 3.04 ± 0.085 | 2.54 ± 0.096 | 2.1 ± 0.073
KQVLDVDPVYKDVAKPT [FAS2] | 2.98 ± 0.065 | 2.99 ± 0.058 | 3.08 ± 0.037 | 2.86 ± 0.041
